Assay results from article PMC12931233.

Key:
[1] = immunoblot of endogenous CD47, MHCC97-H and HCCLM3; conditions: control: matched control (untreated/DMSO, scramble, vector)
[2] = cell-surface CD47 by flow cytometry and immunofluorescence; conditions: glycan changed form; control: scramble / vector
[3] = CHX chase, rescued MHCC97-H; half-life; conditions: glycan changed form; control: scramble / vector, WT CD47 rescued cells
[4] = IP and ubiquitin immunoblot
[5] = CHX chase immunoblot, 293T; half-life; conditions: glycan lost
[6] = immunoblot, reconstituted MHCC97-H; conditions: glycan lost; control: WT CD47 reconstituted cells
[7] = CHX chase immunoblot, reconstituted MHCC97-H; half-life; conditions: glycan lost; control: WT CD47 reconstituted cells
[8] = Transwell chemotaxis; CCR7 on DCs; conditions: glycan lost; control: CD47 WT reconstituted Hepa1-6
[9] = ubiquitin immunoblot, reconstituted Hepa1-6; conditions: glycan lost; control: WT CD47 reconstituted Hepa1-6
[10] = Transwell co-culture with BMDCs, flow cytometry; conditions: glycan lost; control: CD47 WT reconstituted Hepa1-6

Molecule: CD47: 2F-Fuc
- expression_or_secretion ([1]; glycan changed form): decreases

Molecule: CD47: FUT8 ablation
- expression_or_secretion [2]: decreases

Molecule: CD47: FUT8 depletion
- degradation_or_half_life [3]: decreases

Molecule: CD47: FUT8 overexpression
- degradation_or_half_life [3]: increases
- expression_or_secretion [2]: increases

Molecule: CD47: HA-FUT8 WT overexpression
- other: ubiquitination level ([4]; glycan changed form, control: untreated / vector): decreases

Molecule: CD47: HA-FUT8 overexpression
- expression_or_secretion ([1]; glycan changed form): increases

Molecule: CD47: N23Q
- other: ubiquitination level ([4]; glycan lost, control: WT CD47): no change
- degradation_or_half_life ([5]; control: Flag-CD47 WT): no change

Molecule: CD47: N34Q
- other: ubiquitination level ([4]; glycan lost, control: WT CD47): no change
- degradation_or_half_life ([5]; control: Flag-CD47 WT): no change

Molecule: CD47: N50Q
- other: ubiquitination level ([4]; glycan lost, control: WT CD47): no change
- degradation_or_half_life ([5]; control: Flag-CD47 WT): no change

Molecule: CD47: N73Q
- other: ubiquitination level ([4]; glycan lost, control: WT CD47): no change
- degradation_or_half_life ([5]; control: Flag-CD47 WT): no change

Molecule: CD47: N111A
- expression_or_secretion [6]: decreases
- degradation_or_half_life [7]: decreases

Molecule: CD47: N111Q
- other: ubiquitination level ([4]; glycan lost, control: WT CD47): increases
- expression_or_secretion [6]: decreases
- degradation_or_half_life ([5]; control: Flag-CD47 WT): decreases
- degradation_or_half_life [7]: decreases

Molecule: CD47: N111T
- expression_or_secretion [6]: decreases
- degradation_or_half_life [7]: decreases

Molecule: CD47: shFUT8
- expression_or_secretion ([1]; glycan changed form): decreases

Molecule: CD47: tunicamycin (TM)
- other: ubiquitination level ([4]; glycan lost, control: untreated / vector): increases
- degradation_or_half_life ([5]; control: DMSO): decreases
- expression_or_secretion ([1]; glycan lost): decreases

B1: CD47 (murine): N109Q (protein)
parent chain: MWPLAAALLLGSCCCGSAQLLFSNVNSIEFTSCNETVVIPCIVRNVEAQSTEEMFVKWKLNKSYIFIYDGNKNSTTTDQNFTSAKISVSDLINGIASLKMDKRDAMVGNYTCEVTELSREGKTVIELKNRTVSWFSPNEKILIVIFPILAILLFWGKFGILTLKYKSSHTNKRIILLLVAGLVLTVIVVVGAILLIPGEKPVKNASGLGLIVISTGILILLQYNVFMTAFGMTSFTIAILITQVLGYVLALVGLCLCIMACEPVHGPLLISGLGIIALAELLGLVYMKFVASNQRTIQPPRNR
- other: CD103+ DC migration and CCR7 expression [8]: increases
- other: ubiquitination level [9]: increases
- other: NK cell TNF-α and GZMB expression [10]: increases

B2: CD47 (murine): N109T (protein)
parent chain: MWPLAAALLLGSCCCGSAQLLFSNVNSIEFTSCNETVVIPCIVRNVEAQSTEEMFVKWKLNKSYIFIYDGNKNSTTTDQNFTSAKISVSDLINGIASLKMDKRDAMVGNYTCEVTELSREGKTVIELKNRTVSWFSPNEKILIVIFPILAILLFWGKFGILTLKYKSSHTNKRIILLLVAGLVLTVIVVVGAILLIPGEKPVKNASGLGLIVISTGILILLQYNVFMTAFGMTSFTIAILITQVLGYVLALVGLCLCIMACEPVHGPLLISGLGIIALAELLGLVYMKFVASNQRTIQPPRNR
- other: NK cell TNF-α and GZMB expression [10]: increases

B3: CD47 (murine): N109A (protein)
parent chain: MWPLAAALLLGSCCCGSAQLLFSNVNSIEFTSCNETVVIPCIVRNVEAQSTEEMFVKWKLNKSYIFIYDGNKNSTTTDQNFTSAKISVSDLINGIASLKMDKRDAMVGNYTCEVTELSREGKTVIELKNRTVSWFSPNEKILIVIFPILAILLFWGKFGILTLKYKSSHTNKRIILLLVAGLVLTVIVVVGAILLIPGEKPVKNASGLGLIVISTGILILLQYNVFMTAFGMTSFTIAILITQVLGYVLALVGLCLCIMACEPVHGPLLISGLGIIALAELLGLVYMKFVASNQRTIQPPRNR
- other: NK cell TNF-α and GZMB expression [10]: increases
